One may read the EC50 as the concentration giving half of the maximal effect.

The source of these data is patent CN114560932A (MILITARY MEDICINE RES INSTITUTE OF CHINESE PEOPLE …, dated 2022).

For one assay, the target named is 鼠疫菌F1重组蛋白 (Yersinia pestis, UniProt P26948 22-170).
Another assay addresses 鼠疫杆菌V重组蛋白 (Yersinia pestis, UniProt P0C7U7 1-326). Nature of the assay: ELISA, antigen coated at 2 μg/mL, mhS1 at 20 μg/mL, goat anti-human IgG-HRP. (In general: An ELISA detects its analyte on a solid surface through an enzyme-linked reagent.)

Chain of 鼠疫菌F1重组蛋白 (P26948 22-170 limits assumed): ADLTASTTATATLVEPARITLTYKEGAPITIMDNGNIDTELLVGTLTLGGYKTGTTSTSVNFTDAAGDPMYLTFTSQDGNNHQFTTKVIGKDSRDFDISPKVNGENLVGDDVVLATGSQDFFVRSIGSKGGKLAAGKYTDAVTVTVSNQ
Chain of 鼠疫杆菌V重组蛋白 (P0C7U7 whole entry): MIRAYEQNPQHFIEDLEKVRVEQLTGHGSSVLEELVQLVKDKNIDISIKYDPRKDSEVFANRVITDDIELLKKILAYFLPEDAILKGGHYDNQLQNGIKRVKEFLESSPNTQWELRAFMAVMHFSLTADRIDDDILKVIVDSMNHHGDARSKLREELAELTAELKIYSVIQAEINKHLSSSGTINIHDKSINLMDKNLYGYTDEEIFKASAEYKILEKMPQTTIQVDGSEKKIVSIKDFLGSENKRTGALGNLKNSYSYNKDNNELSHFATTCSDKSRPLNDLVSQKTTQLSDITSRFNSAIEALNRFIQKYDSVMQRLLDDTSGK

B1: 人鼠嵌合全抗体mhS1 (antibody, V domains shown)
VH: QVQLKESGAELVKPGASVKLSCTASGFNIKDTYIHWMKQRPEQGLEWIGRIDPANGHSIYDPKFQGKATITADASSNAAYLQLSSLTSEDTAVYYCARSYGYEKRYAMDYWGQGTSVTVSS
VL: DIVMTQTTSSLSASLGDRVTISCSASQGISNYLNWYQQKPDGTVKVLIYYTSTLHSGVPSRFSGSGSGTDYSLTISNLEPEDIATYYCQQYSKLPWTFGGGTKLEMKR
In the case of B1, a half-maximal response in the assay with 鼠疫菌F1重组蛋白 (EC50) required 11.4 pM. Moreover, in the assay with 鼠疫杆菌V重组蛋白, the binding result was “no binding (tested: 20μg/mL)”.
